The target of test [1] is T1, GST-HttExon1Q21 (recombinant huntingtin exon 1 protein with 21 polyQ repeats fused to an N-terminal GST tag) (human, UniProt P08515 1-218 = GST; P42858 1-88).
T1 construct: Expressed in E. coli BL21; also called GST-HD21; soluble GST-HD21; not shown: PreScission cleavage site
As to the kind of experiment: direct ELISA, antigen coated at 5 ug/ml. For orientation: In an ELISA, binding on a coated surface is turned into a signal by an enzyme label.

Test [2] addresses T2, HD35 (huntingtin exon 1 protein with 35 polyQ repeats after cleavage of the GST tag; aggregation reaction) (human, UniProt P42858 1-88).
T2 construct: domain: Exon1; Residues left by the protease site are not described; Time-resolved aggregation reaction; also called HD35 aggregates; HttExon1Q35
As to the kind of experiment: filter retardation assay (SDS stable aggregates).

For test [3], the target named is T3, HD21 (huntingtin exon 1 protein with 21 polyQ repeats after cleavage of the GST tag; aggregation reaction) (human, UniProt P42858 1-88).
T3 construct: domain: Exon1; Residues left by the protease site are not described; Aggregated preparation or time-resolved aggregation reaction; also called aggregated HD21; HttExon1Q21
As to the kind of experiment: direct ELISA, antigen coated at 5 ug/ml.

In test [4] the target is T4, HD49 (huntingtin exon 1 protein with 49 polyQ repeats after cleavage of the GST tag; aggregation reaction) (human, UniProt P42858 1-88).
T4 construct: domain: Exon1; Residues left by the protease site are not described; Aggregated preparation or time-resolved aggregation reaction; also called aggregated HD49; aggregated HTT Exon1 HD49
As to the kind of experiment: direct ELISA; reference HD21; aggregated or GST-fused form not said.

Test [5] deals with T1, GST-HttExon1Q21 (recombinant huntingtin …). As to the kind of experiment: direct ELISA.
Test [6] has as its target T3, HD21 (huntingtin exon 1 protein with 21 …). As to the kind of experiment: direct ELISA (Example 25, FIG. 20).

What is called EC50 is the concentration giving half of the maximal effect.

T3 sequence (P42858 1-88 limits assumed, change not shown): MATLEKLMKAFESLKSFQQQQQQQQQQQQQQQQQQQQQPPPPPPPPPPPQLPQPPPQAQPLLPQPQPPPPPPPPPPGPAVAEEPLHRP
T1 sequence (P08515 1-218, tags or fused parts left off): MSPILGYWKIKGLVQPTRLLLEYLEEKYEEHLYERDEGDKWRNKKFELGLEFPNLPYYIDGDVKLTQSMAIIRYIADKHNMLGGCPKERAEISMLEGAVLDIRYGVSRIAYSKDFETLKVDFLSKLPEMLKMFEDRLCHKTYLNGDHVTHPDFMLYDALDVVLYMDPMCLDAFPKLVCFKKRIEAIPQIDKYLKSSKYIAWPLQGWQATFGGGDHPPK
T2 sequence (P42858 other isoform, or with tags, fused parts or gaps limits assumed): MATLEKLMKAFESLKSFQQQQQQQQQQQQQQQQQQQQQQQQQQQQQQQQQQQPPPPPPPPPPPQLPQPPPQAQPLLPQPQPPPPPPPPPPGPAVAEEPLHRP
T4 sequence (P42858 other isoform, or with tags, fused parts or gaps limits assumed): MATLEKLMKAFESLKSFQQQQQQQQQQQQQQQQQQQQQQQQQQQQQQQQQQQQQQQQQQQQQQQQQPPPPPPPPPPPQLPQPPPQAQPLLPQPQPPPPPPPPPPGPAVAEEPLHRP

B1: NI-302.64E5 (antibody, V domains shown)
VH: EVQLVETGGGLVKPGGSLRLSCAASGFTFDQAWMSWVRQVPGKGLEWVGRIKTKTEGEATDYAAPVRGRFTISRDDSEDTVFLQMNSLKTEDTALYYCTSTGVLAAAVDVYWGQGTLVTVSS
VL: DIQLTQSPDSLAVSLGERATMTCKSSQSLFYSYNNENYLAWYQQRPGQPPKLLIYWASTRESGVPDRFSGSGSGTDFTLTISSLQAEDVAVYYCQQYYSTPQTFGQGTKVDIK
Regarding B1, the binding result in test [1] was “binds”.

B2: NI-302.55D8 (antibody, V domains shown)
VH: QVQLVQSGSEVKKPGASVKVSCKASGYTFTDYYIHWVRQAPGQGLEWMGRINPNNGGTNYAQNFQGWVTMTRDTSISTAYMELSRLRSDDTAVYYCARVGGELLREGGYHYYMDVWGKGTTVTVSS
VL: QSVLTQPPSVSGAPGQRVTISCTGNSSNIGAGYDVHWYQQLPGTAPKLLIFDNTNRPSGVPDRFSGSKSGTSASLAITGLQAEDEANYHCQSYDNSLSGSWVFGGGTKLTVL
For the molecule B2, the binding result in test [1] is “binds”.

B3: NI-302.44D7 (antibody, human IgG1, V domains shown)
VH: EVQLVQSGGGLVQPGGSLRLSCAASGFTFSSYAMSWVRQAPGKGLEWVSGIGYSDTSTYYADSVKGRFTVSRDISKNTLYLQMNSLRAEDTAVYYCAKGTRDYYGMDVWGQGTMVTVSS
VL: QTVVTQEPSFSVSPGGTVTLTCGLSSGSVSTSYYPSWYQQTPGRAPRTLIYSTNTRSSGVPDRFSGSILGNKAALTITGAQADDESDYYCVLFMGSGIGVFGGGTRLTVL
notes: Expressed as complete human IgG1
Regarding B3, the binding result in test [2] is recorded as “no binding (tested: 0.2 µg/ml primary antibody)”.

B4: NI-302.74C11 (antibody, V domains shown)
VH: EVQLVQSGTEVQKPGASVKVSCKASGYSFTGYFLHWVRQAPGQGLEWMGWINPNSGDTNYAEKFRGRIIMTRDTSVSTAHMELSSLRFDDTALYYCTREAPDPGAETDVWGQGTTVTVSS
VL: QSVLTQPPSVSVSPGQTARITCSGDAVPKQYIYWYQQKPGQAPILVIYKDTQRPSGIPERFSGSNSGTTVTLTITGVQADDEGDYYCQSADSSATWVFGGGTKLTVL
In the case of B4, the binding result in test [1] and in test [3] was “binds” each time.

B5: NI-302.11A4 (antibody, V domains shown)
VH: EVQLVESGGGLIQPGGSLRLSCAASGFPVSSSYMSWVRQAPGEGLEWVSVLYRDGDTYYADSVQGRFTISRDNSQNTFYLQMNSLKAEDTAVYYCAGDRRSSHYYYGMDVWGQGTTVTVSS
VL: EIVMTQSPGTLSLSPGERATLSCRASQSVSSSYFAWYQQKPGQAPRLLIYGTSRRATAIPDRFSGSGSGTDFTLTISRLEPEDFAVYYCQQYGSSWTFGPGTKVEIK
Turning to B5, the binding result in test [1] is given as “binds”.

B6: NI-302.35C1 (antibody, V domains shown)
VH: EVQLVESGGNLVQPGGSLRLSCTASGFTFSITALSWVRQAPEKGPQWVSAITGNAYGTYYADSVKGRFTISRDNAKNTLYLQMNGLRAEDTAIYYCVKGIASDSSGYSAFWGPGTLVTVSS
VL: EIVLTQSPATLSLSPGERATLSCRASQSVDNQFAWYQQKPGQAPRLLIYDASRRAPGIPDRFSGSGSGTDFTLTISSLEPEDFAIYYCQHRYTWLYTFGQGTRLEIK
notes: also called anti-C-terminal domain antibody
B6: the binding result in test [1] is listed as “binds”.

B7: NI-302.63F3 (antibody, V domains shown)
VH: QVQLVQSGSAFKKPGTSVKVSCKASGYTFETRSMNWVRQAPGQGLEYMGWINTNTGNRTYVQAFRGRFVFSLDTSVSTAYLQISNLKTEDTAVYYCARGAGGGYWFDSWGQGTLVTVSS
VL: DIQMTQSPDSLAVSLGERATINCKSNQSLFYSSNNNNYLAWYQHKSGQPPKLLVYWGSTRESGVPDRFSGSGSGTDFTLTISSLQAEDVAIYYCHQYYHNPYTFGQGTKLEIK
notes: also called anti-P-rich domain antibody; anti-proline-rich domain antibody
For the molecule B7, the binding result in test [1] and in test [3] was “binds” each time.

B8: NI-302.37C12 (antibody, V domains shown)
VH: EVQLVESGGGLVQPGGSLRLSCVASALTVTNSQMTWVRRAPGRGLEWVSVIYTSGSAYYADSVKGRFTISRDNSKNTVFLQMNSLRVEDTAVYYCAKGPSAYYYGLDLWGQGTTVTVSS
VL: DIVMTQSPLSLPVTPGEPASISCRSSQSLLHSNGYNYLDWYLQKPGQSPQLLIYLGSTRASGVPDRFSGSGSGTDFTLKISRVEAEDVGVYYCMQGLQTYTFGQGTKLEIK
Take B8: the binding result in test [1] is listed as “binds”; in test [2], “no binding (tested: 0.2 µg/ml primary antibody)”.

B9: NI-302.71F6 (antibody, V domains shown)
VH: QVQLQQWGAGLLKPSETLSLTCAVYGGSLSGYYWSWIRQPPGKGLEWIGEVNHSGGTNLNSSLKSRVIISVDKSKKQFSLKLSSVTAADTAMYFCARGYSYDPKYYFDSWSQGTLVTVSS
VL: QSALTQPASVSGSPGQAITISCTGTSSDIGSYDFVSWYQQDPGKAPKVIIYGVNKRPSGVSNRFSGSKSGNTASLTISGLQADDEADYYCCSYAGSTTWVFGGGTKLTVL
Regarding B9, the binding result in test [1] and in test [3] was “binds” in each case.

B10: NI-302.33C11 (antibody, V domains shown)
VH: EVQLVESGGGVVQPGNSLRLSCAASGFRFSDFGMHWVRQAPGKGLEWLALIWYDGGYKYYADSVKGRFTISRDNSKNTMFLQMNSLRAEDTAVYYCATHLEYCSRTTCYLGHWGQGTLVTVSS
VL: DIQLTQSPSFLSASVGDTVTFTCRASQGISDYLAWFQQKPGIAPKLLIYAASTLQTGVPSRFSGSGSGTEFTLTIRSLQSEDFGTYYCQQLKTYPYTFGQGTKVEIK
notes: also called anti-polyP domain antibody
Take B10: in test [1], the EC50 was around 0.1 nM.

B11: NI-302.7D8 (antibody, V domains shown)
VH: QVQLVQSGSELKKPGASVKVSCKASGYNFNNYAINWLRQAPGQGLEWMGWINTITGHPTYAQGFKGRFVFSLDTSVSTAYLQISSLKPEDTAVYYCARTYSNYGEFDYWGQGTLVTVSS
VL: QSALTQPASVSGSRGQSITISCTGTSSDVGSYNLVSWYQQYPGKAPKLIIHEGSERPSGVSNRFSGSKSGNTASLTISGLQAEDEADYYCCSYAGTTTFVLFGGGTKLTVL
notes: also called anti-poly Q/P domain antibody
In the case of B11, the binding result in test [1] is on record as “binds”.

B12: NI-302.15F9 (antibody, human IgG1, V domains shown)
VH: EVQLVESGGGLVTPGGSLRLSCEASGFLFKNSSMNWVRQTPGKGLEWVSSIDTSATNYKYYADSVKGRFTISRDDATNSLYLQMNSLRADDTATYYCARGYYTPRDFDYWGQGTLVTVSS
VL: DVVMTQSPQTLSVSLGQAASISCRSSQSLLYRDNNTYLNWFHQRPGQSPRRLIYRASDRDSGVPDRFSGGGSGTDFTLKISGVEAEDVGTYYCMQGTHWPRTFGQGTKVEIK
notes: as for B3
In the case of B12, in test [4], the “fold preference of HD49 vs. HD21” value is around 5 fold.

B13: NI-302.15E8 (antibody, V domains shown)
VH: EVQLVESGGGLIQPGGSLRLSCAVSGFTVSSYSMNWVRQAPGKGLEWVSYTSSSRSNTKKYADSVKGRFTISRDNARNSLYLQMNSLRDEDTAVYYCARAGDFGELLTGEGYYGMDVWGQGTTVTVSS
VL: SYELTQPPSVSVSPGQTATITCSGDELGDKYVGWYQQKPGQSPLLVIYQDAKRPSGIPERFSGSNSGNTATLTISGTQAMDEADYYCQAWDSGTMVFGGGTRLTVL
notes: also called anti-N-terminal domain antibody
With B13, the binding result in test [5] and in test [3] was “binds” throughout.

B14: NI-302.6N9 (antibody, human IgG1, V domains shown)
VH: EVQLVESGGDLVQPGGSLRLSCVVSGFTFSSYAMTWVRQAPGKGLAWVSTISATGGSTFYTDSVRGRFTISRDNSKNTLYLQMNSLRTDDTAIYYCVKDLFGVDTSYYGMDVWGQGTTVTVSS
VL: EIVLTQSPGTLSLSPGERATLSCRPSQSVSGRYVAWYQQKPGQAPRLLFYAASNRAIGIPDRFSGSGSGTDFTLTISRLEPEDFAVYYCQHYGASSYTFGPGTKVDIK
notes: as for B3
Turning to B14, the binding result in test [6] is on record as “binds”.

B15: NI-302.4A6 (antibody, V domains shown)
VH: EVQLVESGGGLVQPGGSLRLSCAASGFTFSAYAMSWVRQAPGKGLEWVSTISGSGGSTYYADSVKGRFSISRDNSKNTLYLQMNSLRAEDTAVYFCAKVTTELYGANSYYYYMDVWGKGTTVTVSS
VL: EIVLTQSPGTLSLSPGERATLSCRASQSVVSRYLAWYQQKPGQAPRLLIYGASSRATGIPDRFSGSGSGTDFTLTISRLEPEDFAMYYCQLYGNSQTFGQGTKVEIK
On to B15, for which the binding result in test [1] is recorded as “binds”.

B16: NI-302.22H9 (antibody, V domains shown)
VH: EVQLVESGGGLVHPWGSLRVSCAASGFSVSNYAITWVRQAPGKGLEYISVIYRDGRTYYGDSVRGRFTISRDDSKNTIYLQMNSLRFEDTAVYYCARAHGQYYYGVDVWGQGTTVTVSS
VL: DVVMTQSPLSLSVSPGEPASISCRSSQSLLHSNGYNYLDWYRQKPGQSPQLLIYLNSNRASGVPDRFSGSGSGTEFTLTISRVEAEDVGVYYCMQSLQTFTFGGGTKVEIK
In the case of B16, the binding result in test [1] is reported as “binds”.

B17: NI-302.8M1 (antibody, V domains shown)
VH: EVQLVQSGAEVKKPGASVKVSCKASGYTFTIYYMHWVRQAPGQGLEWMGGISPSGAHTMYAQNFQGRVTVTRDTSTSTVYMELSSLRSEDTAVYYCARGSTVTNYRPFDYWGQGTLVTVSS
VL: DIQMTQSPSSLSASVGDRVTITCRASQDISNYLAWYQQKPGKVPKLLIFAASTLQSGVPSRFGGSGSGTDFTLTISSLQPEDVATYYCQNYNSGPPPFGPGTKVDIK
As for B17, the binding result in test [1] was “binds”.
